Results on four substances are retold here after patent US9982287B2, “Enterokinase cleavable polypeptides” (Novo Nordisk A/S, priority 2013, dated 2018).

Assay [1] deals with T1, Enterokinase bovine light chain variant (C112A, L134K, I135K) (Bos taurus, UniProt P98072, C912A/I935K/L934K).
T1 construct: the bovine light chain variant (C112A, L134K, I135K) as described in WO2013/092855A1; made in house
Kind of assay: EK-kinetics_1: initial rates of Enterokinase hydrolysis of intramolecularly quenched fluorogenic peptides. The class given is biochemical. Particulars: Z1 = HAEGT, X6 absent; for Activity (%): relative Enterokinase cleavage rate of reference substrates: reference EK-sites, normalised to substrate with D4K site = 100%. As to the method: These peptide substrates have the following general structure: Z2*-X6-X5-X4-GDR-Z1* Formula (II) • wherein • X6-X5-X4 have the same meaning as in formula (I) (each being an amino acid, however X6 being optional), • Z2 is Lys(Dnp) and • Z1* is Z1-Lys(Abz)amide, where Z1 is as defined in formula (I). • SPPS_I was performed on a Multipep RSi synthesizer from Intavis Bioanalytical Instruments AG (Koeln, Germany) at 3-μmol scale in parallel using 2.5 fold excess of Fmoc-amino acids (300 mM in NMP with 300 mM Oxyma Pure®) relative to resin loading e.g. Rinkamide-Chematrix (0.5 mmol/g). Fmoc-deprotection was performed using 20% piperidine in NMP. Coupling was performed using 1:1:1:1 amino acid/Oxyma Pure®/DIC/collidine in NMP. All amino acids were “double or triple coupled”, meaning that after the first coupling (60 min), the resin is drained and more reagents are added (amino acid, Oxyma Pure®, DIC, and collidine), and the mixture allowed to react again (60 min).
Method: EK-Kinetics_1 • EK-kinetics_1 was performed by measuring initial rates of hydrolysis of intramolecularly quenched fluorogenic peptides: Lys(Dnp)-peptide-Lys(Abz)amide according to formula (II). After measuring the background fluorescence of peptides, generally at a substrate concentration in the range of 1 to 50 μM, initial rates of hydrolysis was measured by addition of purified enterokinase enzyme at a concentration enabling reading the initial rate of hydrolysis, i.e. less than 5% hydrolysis in 30 min. Typically an enzyme concentration of 1 to 10 nM may be used. After up to one hour of hydrolysis additional enzyme was added to enable measurement of the fluorescence level at total hydrolysis. Hydrolysis rates were generally measured in 50 mM MOPS buffer, 1 mM EDTA, pH 7.5 at 25° C. using a Perkin Elmer Enspire fluorescence plate reader using 320 nm for excitation and 420 nm for emission.
(§1) • The Enterokinase enzymes used for examples herein was the bovine light chain variant (C112A, L134K, I135K) as described in WO2013/092855A1.

Assay [2] deals with T1, Enterokinase bovine light chain variant (C112A, L134K, I135K). Kind of assay: EK-kinetics_2: initial rates of Enterokinase hydrolysis of full length GLP-1 with an N-terminal extension (UPLC). It is filed as biochemical. To be noted: Z1 = entire [Arg34]GLP-1(9-37), N-terminal extension Z2; slowest D4K site in this set = 100%; initial substrate 1 mg/ml, pH 8.5. The procedure:
Method: EK-kinetics_2 • EK-kinetics_2 was performed by calculating initial rates of hydrolysis of full length GLP-1 with an N-terminal extension. Substrate concentrations were in the range 150-300 μM. The hydrolysis reaction was started by adding an amount of enterokinase giving a final concentration of 9.5 nM. Samples were taken after 6.2 min, 18.7 min, 43.7 min, 86.3 min, 151.3 min, and 243.8 min and quenched by a 1+9 dilution into 5% acetic acid. A suitable method was used on a Waters iClass UPLC to separate and individually quantify remaining substrate and formed product on an analytical reversed-phase column by integrating peak areas. An equation of the following form was fitted to the raw data: […]
wherein t is time, cs0 is initial substrate concentration, cE is enzyme concentration, cPt is product concentration at time t, cSt is substrate concentration at time t, kcat and Km are hydrolysis parameters, and Ki is product inhibition constant. A constant Ki of 0.1 μM was used for all reactions. Initial hydrolysis rates were calculated based on the parameters determined for a initial substrate concentration of 1 mg/ml for all peptides. All reactions were performed in 50 mM Tris buffer, 1 mM EDTA, pH 8.5.
as §1

No end group written: not given here. *: point of attachment. Dnp = O=[N+]([O-])c1ccc(*)c([N+](=O)[O-])c1; 2Abz = Nc1ccccc1C(=O)O

T1 sequence (P98072 801-1035 C912A/L934K/I935K): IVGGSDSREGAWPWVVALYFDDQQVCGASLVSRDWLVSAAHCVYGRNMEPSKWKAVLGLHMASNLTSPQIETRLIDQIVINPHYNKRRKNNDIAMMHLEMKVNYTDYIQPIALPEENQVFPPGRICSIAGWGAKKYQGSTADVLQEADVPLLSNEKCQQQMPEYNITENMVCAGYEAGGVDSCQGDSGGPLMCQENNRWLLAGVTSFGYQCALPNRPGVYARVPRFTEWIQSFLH

As for “Lys(Dnp)-IMGDRHAEGT-Lys(Abz)amide (K(Dnp)IMGDRHAEGTK(2Abz)-NH2; N-terminus assumed; SMILES CC[C@H](C)[C@H](NC(=O)[C@@H](N)CCCCNc1ccc([N+](=O)[O-])cc1[N+](=O)[O-])C(=O)N[C@@H](CCSC)C(=O)NCC(=O)N[C@@H](CC(=O)O)C(=O)N[C@@H](CCCNC(=N)N)C(=O)N[C@@H](Cc1c[nH]cn1)C(=O)N[C@@H](C)C(=O)N[C@@H](CCC(=O)O)C(=O)NCC(=O)N[C@H](C(=O)N[C@@H](CCCCNC(=O)c1ccccc1N)C(N)=O)[C@@H](C)O) [Example 111]”, the “Activity (%): relative Enterokinase cleavage rate of reference substrates” value in assay [1] is given as 125%.

For the substance “DVKPGQPLYDEGDR-[Arg34]GLP-1(9-37) (DVKPGQPLYDEGDREGTFTSDVSSYLEGQAAKEFIAWLVRGRG; Enterokinase cleavable polypeptide) [Example 119]”, the “Activity (%): relative Enterokinase cleavage rate” value in assay [2] was determined as 707%.

Turning to “Lys(Dnp)-AEGDR-HAEGT-Lys(Abz)amide (K(Dnp)AEGDRHAEGTK(2Abz)-NH2; N-terminus assumed; SMILES C[C@H](NC(=O)[C@H](Cc1c[nH]cn1)NC(=O)[C@H](CCCNC(=N)N)NC(=O)[C@H](CC(=O)O)NC(=O)CNC(=O)[C@H](CCC(=O)O)NC(=O)[C@H](C)NC(=O)[C@@H](N)CCCCNc1ccc([N+](=O)[O-])cc1[N+](=O)[O-])C(=O)N[C@@H](CCC(=O)O)C(=O)NCC(=O)N[C@H](C(=O)N[C@@H](CCCCNC(=O)c1ccccc1N)C(N)=O)[C@@H](C)O) [Example 1]”, in assay [1] (initial rate normalised to substrate with D4K site = 100%), the “Activity (%): relative Enterokinase cleavage rate” value was determined as 382%.

For “Lys(Dnp)-INDDRHAEGT-Lys(Abz)amide (K(Dnp)INDDRHAEGTK(2Abz)-NH2; N-terminus assumed; SMILES CC[C@H](C)[C@H](NC(=O)[C@@H](N)CCCCNc1ccc([N+](=O)[O-])cc1[N+](=O)[O-])C(=O)N[C@@H](CC(N)=O)C(=O)N[C@@H](CC(=O)O)C(=O)N[C@@H](CC(=O)O)C(=O)N[C@@H](CCCNC(=N)N)C(=O)N[C@@H](Cc1c[nH]cn1)C(=O)N[C@@H](C)C(=O)N[C@@H](CCC(=O)O)C(=O)NCC(=O)N[C@H](C(=O)N[C@@H](CCCCNC(=O)c1ccccc1N)C(N)=O)[C@@H](C)O) [Example 112]”, in assay [1], the “Activity (%): relative Enterokinase cleavage rate of reference substrates” value is 126%.
